Assay: soluble on expression in E. coli; label from the status in PepcDB or PDB records

Sequence	soluble on expression in E. coli
MISAAPYRDRVVHHALYNIIVPIFERTFISDSYANRVGFGSHRALRRFTQFSRSSHYVFQADIRKYFPSIDHKILKHLIYRKIKCPDTLWLINTIIDNSNFQEPVINYFPGDNLLAPLERRCGLPIGNLTSQFFANVYLNNFDHFVKEQLQAFKYIRYVDDFALFSDDKAFLETARVIIEEYLTSLRLKIHPIKSQLFETKHGANFVGFRILPNQIRVRSDNLRLGRKRLRQMLRDYDEGKIDAQHLTQSTQSWVAHLKHGDTWQLRQRIFSSSIFDLAMLILEHHHHHH	soluble
MISAHVWADAQRLWDFQQMGHEPHPCSVAIGLGSHDLGVAETTAELYHRGMAPVIVFTGATSRTTHERMPRGEAEHYRERAVELGVPERAILVEPNARNTGENIRLSRALLEDLGMPVTSVLLVSKPYEERRAYATARKLWPNVEWVCVSTSMTLPDYVKSIGDARLVIDMLVGAQQRLMVYPRQGFMIKQEIPEPIMTAYEHLRGHGFTSRLVPETAEQTLEHHHHHH	soluble
MISCSEEGSNKILVAISLDRDESQNVLSWAINVLAKPSDTVVALHLLVGEEPRKLPMKKKKRTQIRHAKAHVISMLGEFAYTCCHNQVNLEAKVGFSSNIGRGLIDEVKSISAHYLVLSRPTTHEFR	soluble
MISDSKLLASAAWDAQSLNELKAKASEDPAANIRPVARQVEGMFVQMMLKSMRDALPKDGLFSSEHTRLYTSMYDQQIAQQMTAGKGLGLAEMMVKQMTPEQPLPEESTPAAPMKFPLETVVRYQNQTLSQLVQKAVPRNYDDSLPGDSRAFLAQLSLPAQLASQQSGVPHHLILAQAALESGWGQRQIRRENGEPSYNLFGVKASGNWKGQVTEITTTEYENGEAKKVKAKFRVYSSYLEALSDYVGLLTRNPRYAAVTTAASAEQGAQVLQDAGYATDPHYARKLTNMIQQMKSISDKVSKTYSMNIDNLF	not soluble
MITAEKKKKNKFLPNFDKQSIYSLRFDEMQNWLVEQGQQKFRAKQIFEWLYQKRVDSIDEMTNLSKDLRQLLKDNFTVTTLTTVVKQESKDGTIKFLYELQDGYTIETVLMRHDYGNSVCVTTQVGCRIGCTFCASTLGGLKRNLEAGEIVSQVLTVQKALDATEERVSQIVIMGIGEPFENYDEMMDFLRIVNDDNSLNIGARHITVSTSGIIPRIYDFADEDIQINFAVSLHAAKDEVRSRLMPINRAYNVEKLIEAIQYYQEKTNRRVTFEYGLFGGVNDQLEHARELAHLIKGLNCHVNLIPVNHVPERNYVKTAKNDIFKFEKELKRLGINATIRREQGSDIDAACGQLRAKERQVETRLEHHHHHH	not soluble
MITELRPNPYQPRKHFNKEAIQELSASIKEHGILQPLIARKSIKGYEIVAGERRYRAAKEAGLEKVPAVVRQLNEQQMMEFALLENLQREDLNPMEEAMAYQMLMNELNVTQEQLAKCLGKSRPYIANYTRLLSLPSFVQDMIANGQLSMAHGRTLLTIKDEEQLKSLLKRIEKEGLNVRQLEKIVQEINQSVSRETKQVKKERNIFFIERETFLREKFGTDVKIKETKKEKGKIEIEFFNKEDLNRILELLAQKN	not soluble
MITIEKYSPERHEQTCELSVLEEQSQFTVADVGEMLTRLEPTELPHLILADDDVVGFFLFDAAYSEKYDFCPKNSLGVRALLVDHRHQGKGIAKQAIQQFADFAKHHYPEFDALYLTVNCRNIPAYQCYLKSGFEDTNELYHGGPVGPQHIMRQPL	not soluble
MITILGAGKVGMATAVMLMMRGYDDLLLIARTPGKPQGEALDLAHAAAELGVDIRISGSNSYEDMRGSDIVLVTAGIGRKPGMTREQLLEANANTMADLAEKIKAYAKDAIVVITTNPVDAMTYVMYKKTGFPRERVIGFSGILDSARMAYYISQKLGVSFKSVNAIVLGMHGQKMFPVPRLSSVGGVPLEHLMSKEEIEEVVSETVNAGAKITELRGYSSNYGPAAGLVLTVEAIKRDSKRIYPYSLYLQGEYGYNDIVAEVPAVIGKSGIERIIELPLTEDEKRKFDEAVQAVKKLVETLPPQLRE	soluble
MITIRNKIGQMLIMGFHGSELHDNSPVAQWLSNDGLGGVLLFDKDLSTGIYGKNLRNQAQIKQLIRQLNRYASMISGGNDNLPLFTAIDYEGGVVDRLSKIEGCPPTMKARELAKLSSDDFDEEVTQMAMTLQSLGFNLNFAPVVDLNLNAHAGIIGNLGRSFSSNPEVTIRLAKQFVDVFSRYGIACAYKHFPGHGSATGDTHEGFVDVTETFQTDELIPYRSLLKDLSNPFMVMTAHVINKHLDSKGLPATLSYDVLTLLLRQSIGYDGVIISDDLQMHAISNHYSLEDALCLTINAGADMVIFANQLGTITPPEVIDVIEKLVIDKQIPYQRIDEAYRRIVRLKQQIICSELINT	not soluble
MITLTKKQMEEMLAHARQALPNEACGLLGGRRDGDDRWVERVYPLNNLDQSPEHFSMDPREQLTAVKDMRKNGWVMLGNFHSHPATPARPSAEDKRLAFDPSLSYLIISLAEPQKPVCKSFLIKKDGVDEEEIILKEELEHHHHHH	soluble
MITPKVLSGFKDRLPKDAIQKAQLLAKVSVVFQSFGFVPIETPHLEYAQTLLPDASSDIQKEIYRFKDHGDRDVALRFDLTVPLARFVSLHHQTLGMPFKRYAIGNVFRGERAQKGRYREFTQCDFDFIGSESLVCDAEIIQVIVASLKALDLEDFCVSINHRKILNGICEYFGISQVNEALRIVDKLEKIGLNGVEEELKKECGLNSNTIKELLELIQIKQNDLSHAEFFEKIAYLKDYNENLKKGIQDLERLYQLLGDLQISQNLYKIDFSIARGLGYYTGIVYETTLNEMKSLGSVCSGGRYDHLTKNFSKENLQGVGASIGIDRLIVALSEMQLLDERSTQAKVLIACMHEEYFSYANRLAESLRQSGIFSEVYPEAQKIKKPFSYANHKGHEFVAVIGEEEFKSETLSLKNMHSGMQLNCLSFLKALEIIGENDEDL	not soluble
MITQGPNLIGIHANEKENIETKKFVNWFLNQSITDWNSNNQQKNSDQTTKTAAEYFTDQASYILPLKEKFNKSSDLELKGSSSSSNLTTSSASASLLISNNSSTASSPAPKKTNNNSNTFTAKALELFQQAANNEIIPFSDPSDFRNGTFRNNISSSFNAAVNSK	soluble
MIVGSHQQYVVPSYSAAYVPSAYAYPSVYSPYVAAAAYPSVWAWGSNKNKDDAAPRAFARPSALLNNQKPTTA	not soluble
MIVIEGSDKFKIAKEYIDVEYTLFSKVTFRYEKLKFKDNAELEKIKMFKYKNGYIPNKLNLSFGYGFSSYKKQIIRETVDTLRLTEIFSSENIEDIKFIKDGTKKLEISIEKVVKFKRRKKRNYVCCYCPDMYRDIKLDKESINKIYNRKIKIEREVNIFEDEDVIINKKVLKFPKSWTKNMQKYWLSENKYPIHSTVIDDDRYKCCNVQYTKNRVIILYYIYNH	not soluble
MIVLGIESSCDETGLAIYDYSKKKLIADELYSQVKLHKKYGGVVPELASREHIAKLNLLAKKIFKETGLSFEDIDCIAYTAMPGLVGALMVGATFAKTLGLIHNIDTIAVHHLEGHLLSPLLDHNSNIEYPFVALLVSGGHTQLFEVKEFGEYSLLGESIDDAAGEAFDKTTKLLGMGYPGGVEVANLADQATDKSKYILPRPMKNKPNLDFSFSGLKTAVLNTWYDEQDQSLENKANLCYAFQDAAIDVLVSKCAKALQKTKNTRLVISGGVSANKLLRHQLDLLAKNRGYQIFFPPMKYCTDNGAMIALAGAYRYVNGFKDSNLEINVKARSPL	soluble
MIVPKGNENIRPGYAMEPKYITIHETANTSKGANALNHAKYLDNQARGNTDRSASWHFTVDDKEIYQHLPLNEVGWHAGNKTGNYESIGIEIAVNSDGNYTKAVENAKKLAAYLMNELNISLDHVQKHQFWSGKNCPAFMIQRGQWDAFLKGTNAYYNEHHKDVIPPPEVPHEKDDITGGWYEQDIRQLAARKIMFGDGNGSYWPNRLVTRAEFANLMSRALNLPAGNAKFTDLNEAHPSLVDGINRAASAGIINGRGNNKFDPNATITRDEAVIMIDRALEYNWIYRKEVKLPFTDQHLAYDKKALQNVYAYGIVKGNERNEFVPKGTATRAESAAFLNRMLKVIEA	not soluble
MIYNKTINGLKVFIKDNDPFYEQVLNDFLTCRVKTLKVFRSIDDTKVILIDTARGPLVLKVYAPKHKMTERFLKSCIKKDYYENLIYQTDRVRGEGIQSINDYFLLAERKTLNFAHYYIMLIEYIEGVGLNEYLEISEDLKDQLSESIKELHQHGMVSGDPHKGNFIVSEKGLRLIDLSGKKTTAVLKAKDRIDLERHYNIKNELKDFGYTYLIFKKKIKKVIRDVKVKLGLKSKLEHHHHHH	not soluble
MIYQKQRNTAETQLNISISDDQSPSHINTGVGFLNHMLTLFTFHSGLSLNIEAQGDIDVDDHHVTEDIGIVIGQLLLEMIKDKKHFVRYGTMYIPMDETLARVVVDISGRPYLSFNASLSKEKVGTFDTELVEEFFRAVVINARLTTHIDLIRGGNTHHEIEAIFKAFSRALGIALTATDDQRVPSSKGVIE	soluble
MKAIAGLTVNIKQGEFVYVVGPSGAGKSTFIKMMYREEKPSTGSINVNGLVIETLAERDVPYFRRQLGVIFQDFKLLPKLTVYENVAFALEVIEEEPDAIRERVTEVLGLVGLEDRADALPSELSGGEQQRVAIARAIVNKPKVVIADEPTGNLDIETALDIMKIFTRINERGTTIVMATHNADIVNTIRHRVIAIEGGKIVRDEIEGGYGYEG	not soluble
MKAKLKQLRRLVESSFPEIENFHEKVDASFEKLENAKSFWSEIYVAHLKVVGDGVKVPESVFIKVPRISENVLRCEDESAVNHLNDVLLYYSKKENLFYKHFEYGSIPNFPFPKVYFTEDINGEATGGIVAENLSEKVFAVEHIPGLKHEQILRLMEALAGLHSFLMKRDDKSYVESFVEGAHGRETFSEGMQNMMFEEALTLENVSPEVFGNDRIRNIKWSFDYSIKNKATADAISAFPGIICHADLNVTNVLWKKDSAKDEISAIIDYQMLFIGSIAFDIIRVLTLGLNREIRRKMTQNYLDHYHKTLTELSNGKAPFSMEELLHQYSLIYPFSSNFSLFGIALYIKMYSDGTLGNPEDKEENCKELIDRALGIVEDIEALKNNYK	not soluble
MKAKPLSQDPGSKRYAYRINKEENRKELKHVKINESSLVQEGQKIDLPKKRYYRQRAHSNPFSDHQLEYPVSPQDMDWSKLYPYYKNAENGQMTKKVTIADIGCGFGGLMIDLSPAFPEDLILGMEIRVQVTNYVEDRIIALRNNTASKHGFQNINVLRGNAMKFLPNFFEKGQLSKMFFCFPDPHFKQRKHKARIITNTLLSEYAYVLKEGGVVYTITDVKDLHEWMVKHLEEHPLFERLSKEWEENDECVKIMRNATEEGKKVERKKGDKFVACFTRLPTPAIL	soluble
MKALALFSGGLDSLLSMKLIQEMGIEVVALHFNIGFGANRDKLEYLQNATAQIGVELRVLDIQEQFFNEVLFNPVHGYGKYFNPCIDCHANMFRHALRLLEGEGASFIISGEVIGQRPKSQRREALHQVENLTQTKGLILRPLSAKLLPPTLAEERGWVDREKLLDIHGRGRDRQLAMAKSYGWVYFE	not soluble
MKALERTVTVKGLAEKEVKANIAIWPINFTEVDNNLPKLYETVQLKTDKVVAFLKERGFSDSEITISLPSIEDRQAQGYVDPNVKYRYSAKVNLSVYTSQIDLMLSSRKQMINLVKEGIAIASQDYENRTEFLFTQLNDVKPTMVQEATQNAREVAEKFAKDSESRLGKIKSASQGQFTISDRDSSTPYIKQIRIVSTLTYYLNDLEHHHHHH	not soluble
